The text below walks through data of publication PMC10348767 (2023).

To fix the notation:
B1: FLAG-hnRNPH2 WT, full length [human] / Kapβ2 in HEK293T cells [human (endogenous in HEK293T)] (parent complex)
chain 1: MMLSTEGREGFVVKVRGLPWSCSADEVMRFFSDCKIQNGTSGIRFIYTREGRPSGEAFVELESEEEVKLALKKDRETMGHRYVEVFKSNSVEMDWVLKHTGPNSPDTANDGFVRLRGLPFGCSKEEIVQFFSGLEIVPNGMTLPVDFQGRSTGEAFVQFASQEIAEKALKKHKERIGHRYIEIFKSSRAEVRTHYDPPRKLMAMQRPGPYDRPGAGRGYNSIGRGAGFERMRRGAYGGGYGGYDDYGGYNDGYGFGSDRFGRDLNYCFSGMSDHRYGDGGSSFQSTTGHCVHMRGLPYRATENDIYNFFSPLNPMRVHIEIGPDGRVTGEADVEFATHEDAVAAMAKDKANMQHRYVELFLNSTAGTSGGAYDHSYVELFLNSTAGASGGAYGSQMMGGMGLSNQSSYGGPASQQLSGGYGGGYGGQSSMSGYDQVLQENSSDYQSNLA
chain 2: MVWDRQTKMEYEWKPDEQGLQQILQLLKESQSPDTTIQRTVQQKLEQLNQYPDFNNYLIFVLTKLKSEDEPTRSLSGLILKNNVKAHFQNFPNGVTDFIKSECLNNIGDSSPLIRATVGILITTIASKGELQNWPDLLPKLCSLLDSEDYNTCEGAFGALQKICEDSAEILDSDVLDRPLNIMIPKFLQFFKHSSPKIRSHAVACVNQFIISRTQALMLHIDSFIENLFALAGDEEPEVRKNVCRALVMLLEVRMDRLLPHMHNIVEYMLQRTQDQDENVALEACEFWLTLAEQPICKDVLVRHLPKLIPVLVNGMKYSDIDIILLKGDVEEDETIPDSEQDIRPRFHRSRTVAQQHDEDGIEEEDDDDDEIDDDDTISDWNLRKCSAAALDVLANVYRDELLPHILPLLKELLFHHEWVVKESGILVLGAIAEGCMQGMIPYLPELIPHLIQCLSDKKALVRSITCWTLSRYAHWVVSQPPDTYLKPLMTELLKRILDSNKRVQEAACSAFATLEEEACTELVPYLAYILDTLVFAFSKYQHKNLLILYDAIGTLADSVGHHLNKPEYIQMLMPPLIQKWNMLKDEDKDLFPLLECLSSVATALQSGFLPYCEPVYQRCVNLVQKTLAQAMLNNAQPDQYEAPDKDFMIVALDLLSGLAEGLGGNIEQLVARSNILTLMYQCMQDKMPEVRQSSFALLGDLTKACFQHVKPCIADFMPILGTNLNPEFISVCNNATWAIGEISIQMGIEMQPYIPMVLHQLVEIINRPNTPKTLLENTAITIGRLGYVCPQEVAPMLQQFIRPWCTSLRNIRDNEEKDSAFRGICTMISVNPSGVIQDFIFFCDAVASWINPKDDLRDMFCKILHGFKNQVGDENWRRFSDQFPLPLKERLAAFYGV
B2: GST-hnRNPH2 PY-NLS WT (aa 169–225) [human] / karyopherin β2 (Kapβ2) [not stated] (parent complex)
chain 1: LKKHKERIGHRYIEIFKSSRAEVRTHYDPPRKLMAMQRPGPYDRPGAGRGYNSIGRG
chain 2: B1 chain 2

One experiment covers variants of B1. The experiment is described as follows: co-immunoprecipitation (anti-FLAG IP, immunoblot densitometry); HEK293T cells transfected with FLAG-hnRNPH2 constructs; parent: 100; read off a plot. On the technique in general: Immunoblotting shows a protein as a band on a membrane.
On to chain 1 R206Q, for which the percent of parent is approximately 25%.

Regarding chain 1 R206W, the percent of parent was approximately 48%.

Take chain 1 R206G: the percent of parent is approximately 26%. The same measure, in the same setting: the result for chain 1 Y210C reads approximately 25%; that for chain 1 P209L, approximately 20%.

The next experiment covers variants of B2. Nature of the experiment: GST pulldown, Coomassie Blue band intensity; parent: 86; read off a plot.
With chain 1 P41L, the response was approximately 28%. Consider chain 1 R38W, for which the response was approximately 42%.
